# T1: C-reactive protein (CRP) (UniProt P02741 19-224)
# T1 sequence: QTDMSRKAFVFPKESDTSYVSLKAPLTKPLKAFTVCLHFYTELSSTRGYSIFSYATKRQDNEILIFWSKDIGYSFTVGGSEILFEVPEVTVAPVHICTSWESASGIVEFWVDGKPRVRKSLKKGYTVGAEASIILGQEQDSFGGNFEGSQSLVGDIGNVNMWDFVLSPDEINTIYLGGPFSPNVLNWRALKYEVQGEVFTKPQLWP
# Molecular target: T1, C-reactive protein (CRP)
# Experiment: fluorescence recovery from graphene oxide
binder,measurement,value
FAM-labeled CRP aptamer (ssDNA) DNA: GGCAGGAAGACAAACATATAATTGAGATCGTTTGATGACTTTGTAAGAGTGTGGAATGGTCTGTGGTGCTGT,binding result,binds
